B1: beta'-adaptin in pGAD424 (two-hybrid activator fusion) (natural protein)
chain: MTDSKYFTTTKKGEIFELKAELNSDKKEKKKEAVKKVIASMTVGKDVSALFPDVVNCMQTDNLELKKLVYLYLMNYAKSQPDMAIMAVNTFVKDCEDPNPLIRALAVRTMGCIRVDKITEYLCEPLRKCLKDEDPYVRKTAAVCVAKLHDINAQLVEDQGFLDTLKDLISDSNPMVVANRVAALSEIAESHPSSNLLDLKAQSINKLLTALNECTEWAQIFILDCLGNYMPKDDREAQSICERVTPRLSHANSAVVLSAVKVLMKFMEMLSKDLDYYATLLKKLAPPLVTLLSAEPEPQYVPLRNINLIVQKRPEILKHEMKVFFVKYNDPIYVKLEKLDIMIRLASQANIAQVLAELKEYATEVDVDFVRKAVRAIGRCAIKVEQSAERCVSTLLDLIQTKVNYVVQEAIVVIKDIFRKYPNKYESVIATLCENLDSLDEPEARAAMIWIVGEYAERIDNADELLESFLDGFHDESTQVQLQLLTAIVKLFLKKPTETQELVQQVLSLATQDSDNPDLRDRGYIYWRLLSTDPVAAKEVVLAEKPLISEETDLIEPTLLDELICYIGTLASVYHKPPNAFVEGGRGVVHKSLPPRTASSESTESPEAAPAGAPASDQPDVIPAQGDLLGDLLNLDLGPPVSGPPLAASSVQMGAVDLLGGGLDSLMGDEPEGIGDSNFGAPPASVAAAAPARLGAPVSSGLSDLFDLTSGVGTLSGSYVAPKAVWLPAMKAKGLEISGTFTRQVGSISMDLQLTNKALQVMTDFAIQFNRNSFGLAPAAPLQVHAPLSPNQTVEISLPLNTVGSVMKMEPLNNLQVAVKNNIDVFYFSTLYPLHVLFVEDGKMDRQMFLATWKDIPNENEAQFQIRDCPLNTEAASSKLQSSNIFTVAKRTVEGQDMLYQSLKLTNGIWVLAELRIQPGNPSFTLSLKCRAPEVSQHDIQAYETILKN

Columns and labels:
Assay in all cases: two-hybrid
[1] = biological target: AP47 in pGBT9 (two-hybrid GAL4 DNA binding domain fusion) (UniProt P35585)
UniProt P35585, sequence (P35585 whole entry, the tested form may be a part): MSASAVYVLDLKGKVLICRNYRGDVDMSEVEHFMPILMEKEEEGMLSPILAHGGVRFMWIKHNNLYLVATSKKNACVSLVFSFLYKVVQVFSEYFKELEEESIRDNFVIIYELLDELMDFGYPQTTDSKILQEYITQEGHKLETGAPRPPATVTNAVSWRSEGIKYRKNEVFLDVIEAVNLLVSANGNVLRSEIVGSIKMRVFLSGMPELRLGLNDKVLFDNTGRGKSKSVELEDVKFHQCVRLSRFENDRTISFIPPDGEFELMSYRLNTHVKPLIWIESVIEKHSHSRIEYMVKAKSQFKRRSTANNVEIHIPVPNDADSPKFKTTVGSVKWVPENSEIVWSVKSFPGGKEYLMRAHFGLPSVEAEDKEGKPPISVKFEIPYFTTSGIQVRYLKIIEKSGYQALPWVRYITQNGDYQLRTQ

[2] = biological target: AP50 in pGBT9 (two-hybrid GAL4 DNA binding domain fusion) (UniProt P84092)
UniProt P84092, sequence (P84092 whole entry, the tested form may be a part): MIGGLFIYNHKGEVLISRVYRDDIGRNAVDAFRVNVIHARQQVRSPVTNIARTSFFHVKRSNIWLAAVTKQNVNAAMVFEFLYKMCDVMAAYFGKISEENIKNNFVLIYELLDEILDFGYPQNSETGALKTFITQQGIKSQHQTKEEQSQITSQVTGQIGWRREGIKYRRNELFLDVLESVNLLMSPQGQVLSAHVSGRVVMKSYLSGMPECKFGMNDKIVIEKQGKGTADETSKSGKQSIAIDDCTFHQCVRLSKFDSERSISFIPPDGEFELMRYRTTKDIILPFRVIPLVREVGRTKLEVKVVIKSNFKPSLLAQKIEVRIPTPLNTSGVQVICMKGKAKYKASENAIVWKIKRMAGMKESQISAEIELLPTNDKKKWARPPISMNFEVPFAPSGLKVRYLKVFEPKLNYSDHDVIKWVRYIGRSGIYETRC

[3] = biological target: αγα chimera in pGBT9 (two-hybrid GAL4 DNA binding domain fusion) (not stated | bovine) (UniProt P17427)
UniProt P17427, sequence (P17427 whole entry, change not shown, the tested form may be a part): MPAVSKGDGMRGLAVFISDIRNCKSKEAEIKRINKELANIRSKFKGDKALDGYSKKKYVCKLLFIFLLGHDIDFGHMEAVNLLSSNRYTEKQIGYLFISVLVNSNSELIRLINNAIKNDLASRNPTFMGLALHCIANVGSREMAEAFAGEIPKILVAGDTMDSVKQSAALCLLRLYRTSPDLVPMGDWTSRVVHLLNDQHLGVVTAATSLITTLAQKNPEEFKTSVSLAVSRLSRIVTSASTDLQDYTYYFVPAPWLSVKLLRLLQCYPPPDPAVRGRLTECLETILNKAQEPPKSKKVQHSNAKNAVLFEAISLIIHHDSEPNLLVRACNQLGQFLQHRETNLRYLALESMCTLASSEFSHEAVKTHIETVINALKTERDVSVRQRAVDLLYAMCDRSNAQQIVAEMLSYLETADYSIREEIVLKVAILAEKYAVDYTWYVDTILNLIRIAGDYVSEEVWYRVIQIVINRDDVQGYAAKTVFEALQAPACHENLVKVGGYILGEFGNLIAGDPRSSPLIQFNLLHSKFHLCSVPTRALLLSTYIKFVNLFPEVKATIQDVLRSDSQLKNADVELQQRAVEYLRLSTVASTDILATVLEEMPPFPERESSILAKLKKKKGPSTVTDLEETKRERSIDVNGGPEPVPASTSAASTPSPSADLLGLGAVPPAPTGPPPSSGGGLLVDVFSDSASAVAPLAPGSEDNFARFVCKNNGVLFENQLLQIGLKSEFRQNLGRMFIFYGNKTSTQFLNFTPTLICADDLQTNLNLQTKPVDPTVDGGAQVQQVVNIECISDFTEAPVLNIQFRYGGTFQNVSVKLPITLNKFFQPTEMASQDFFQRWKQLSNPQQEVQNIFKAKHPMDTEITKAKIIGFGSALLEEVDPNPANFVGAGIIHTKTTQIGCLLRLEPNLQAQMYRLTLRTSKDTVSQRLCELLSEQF

Molecule | beta-galactosidase units [1] [units] | beta-galactosidase units [2] [units] | beta-galactosidase units [3] [units]
beta-adaptin in pGAD424 (two-hybrid activator fusion) (from UniProt P62944 1-937) (natural protein) | 25.4 | 102 | 38.6
B1 | – | – | 22.3

— paper PMC2120623
